Test results from patent US20160287696A1, “PAN POLLEN IMMUNOGENS AND METHODS AND USES FOR IMMUNE RESPONSE MODULATION” (LA JOLLA INSTITUTE FOR ALLERGY AND IMMUNOLOGY, priority 2013, published 2016).

B1: NTGA 11: Phl p wild type sequence, Table 2 (protein)
chain: MATSWTLPDHPTLPKGKTVAVIVLDGWGEASADQYNCIHRAETPVMDSLKNGAPEKWTLVKAHGTAVGLPSDDDMGNSEVGHNALGAGRIFAQGAKLVDAALASGKIWEAEGFNYIKESFAEGTLHLIGLLSDGGVHSRLDQVQLLVKGASERGAKRIRLHILTDGRDVLDGSSVGFVETLENDLAQLREKGVDAQVASGGGRMYVTMDRYENDWDVVKRGWDAQVLGEAPYKFKSALEAVKTLRAEPKANDQYLPAFVIVDESGKSVGPIVDGDAVVTFNFRADRMVMLAKALEFADFDKFDRVRVPKIKYAGMLQYDGELKLPNKFLVSPPLIERTSGEYLVKNGVRTFACSETVKFGHVTFFWNGNRSGYFDETKEEYIEIPSDSGITFNEQPKMKALEIAEKTRDAILSGKFDQVRINLPNGDMVGHTGDIEATVVACKAADEAVKIVLDAVEQVGGIYLVTADHGNAEDMVKRNKSGQPALDKSGSIQILTSHTLQPVPVAIGGPGLHPGVKFRSDINTPGLANVAATVMNLHGFQAPDDYETTLIEVAD
modifications: Phleum Pratense
B2: NTGA 9: Phl p wild type sequence, Table 2 (protein)
chain: MAQLQETYACSPATERGRGILLGGDAKTDTIVYCAGRTVFFRRLDAPLDAWTYTEHAYPTTVARISPNGEWVASADVSGCVRVWGRNGDRALKAEFRPISGRVDDLRWSPDGLRIVVSGDGKGKSLVRAFMWDSGSTVGDFDGHSKRVLSCDFKPTRPFRIVTCGEDFLANYYEGPPFKFKHSIRDHSNFVNCIRYSPDGSKFITVSSDKRGLIYDGKTGDKIGELSSEDSHTGSIYAVSWSADSKQVLTVSADKTAKVWDIMEDASGKVNRTLVCTGIGGVDDMLVGCLWQNDHLVTVSLGGTFNVFSASNPDKEPVSFAGHLKTVSSLTYFPQSNPRTMLSTSYDGVIIRWIQGVGYGGRLIRKNNTQIKCFVAAEEELITSGYDNMVFRIPLNGDQCGDAESVDVGGQPNALNIAVQQPEFALITTDSAIVLLHKSTVTSTTKVSYTITSSAVSPDGTEAIVGAQDGKLRIYSISGDTLTEEAVLERHRGAITSIHYSPDVSMFASADANREAVAWDRATREIKLKNMLFHTARINCLAWSPDSRLVATGSIDTCAIIYDVDKPASSRITIKGAHLGGVHGLTFADNDTLVTAGEDACVRVWKLV
modifications: Phleum Pratense
B3: NTGA 29: Phl p wild type sequence, Table 2 (protein)
chain: MASEKHFKYVILGGGVAAGYAAREFAKQGVQPGELAIISKESVAPYERPALSKGYLFPQNAARLPGFHTCVGSGGEKLLPEWYTEKGIELILSTEIVKADLASKTLTSAAGATFTYETLLIATGSSTIKLTDFGVQGAEANNILYLRDINDADKLVAAMQAKKDGKAVVVGGGYIGLELSAALKLNNFDVTMVYPEPWCMPRLFTAGIAHFYEGYYASKGINIVKGTVASGFDADANGDVAVVKLKDGRVLDANIVIVGVGGRPLTGLFKGQVDEEKGGLKTDTFFETSVAGVYAIGDVASFPMKLYNEPRRVEHVDHARKSAEQAVKAIKAKESGETVAEYDYLPYFYSRSFDIAWQFYGDNVGESVLFGDNDPAAAKAKFGTYWVKDGKVVGVFLEGGSADENQAIAKVARAQPLVAANLGELGKEGLDFAAKI
modifications: Phleum Pratense
B4: NTGA 4: Phl p wild type sequence, Table 2 (protein)
chain: YIKLMKTIFDFESIKKLLASPKFSFCFDGLHGVAGAYAKRMFVDELGASESSLLNCVPKEDFGGGHPDPNLTYAKELVERMGLGKSSSNVEPPEFGAAADGDADRNMVLGKRFFVTPSDSVAIIAANAVQSIPYFASGLKGVARSMPTSAALDVVAKNLNLKFFEVPTGWKFFGNLMDAGMCSVCGEESFGTGSDHIREKDGIWAVLAWLSIIAYKNKDNLGGDKLVSVEDIVLQHWATYGRHYYTRYDYENVDAEAAKELMANLVKMQSALSDVNKLIKEIQPDVAEVVSADEFEYKDPVDGSVSKHQGIRYLFGDGSRLVFRLSGTGSVGATIRIYIEQYEKDSSKTGRESSDALSPLVDVALKLSKIKEYTGRSAPTVIT
modifications: Phleum Pratense
B5: NTGA 26: Phl p wild type sequence, Table 2 (protein)
chain: GVFTDKDKAAAHMKGGAKKVVISAPSKDAPMFVVGVNEDKYTSDVNIVSNASCTTNCLAPLAKIINDNFGIVEGLMTTVHSITATQKTVDGPSSKDWRGGRAASFNIIPSSTGAAKAVGKVLPELNGKLTGMSFRVPTVDVSVVDLTVRIEKAASYEDIKKAIKAASEGNLKGIMGYVEEDLVSTDFIGDSRSSIFDAKAGIALNDNFVKLVSWYDNEWGY
modifications: Phleum Pratense
B6: NTGA 30: Phl p wild type sequence, Table 2 (protein)
chain: MAGGGVEDVYGEDRATEEQFVTPWSFSVASGHSLLRDPRHNKGLAFSEAERDAHYLRGLLPPAIVSQEHQEKKIMHNLRQYTVPLQRYIAMMDLQERNERLFYKLLIDNVEELLPVVYTPVVGEACQKYGSIYRRPQGLYISLKDKGKVLEVLKNWPERSIQVIVVTDGERILGLGDLGCQGMGIPVGKLSLYTALGGVRPSACLPITIDVGTNNQTLLDDEYYIGLKQRRATGEEYHELLQEFMNAVKQNYGEKVLVQFEDFANHNAFDLLAKYSKSHLVFNDDIQGTASVVLAGLLAALKVIGGGLADQTYLFLGAGEAGTGIAELIALEMSKHTDLPLDDCRKKIWLVDSKGLLVESRKESLQHFKKPFAHEHEPLTTLLEAVQSLKPTVLIGTSGVGKTFTQEVVEAMASFNEKPVIFSLSNPTSHSECTAEEAYTWTKGTAVFASGSPFDPVEYEGKTYVPGQSNNAYVFPGFGLGVVISGAIRVHDDMLLAASEALAEQVSQENFDKGLIFPPFTNIRKISANIAAKVAAKAYDLGLASRLPRPDDLVKYAESCMYTPLYRSYR
modifications: Phleum Pratense
B7: NTGA 10: Phl p wild type sequence, Table 2 (protein)
chain: MVFSVTKKDTKPFDGQKPGTSGLRKKVTVFQQPHYLANFVQSTFNALPADQVKGATIVVSGDGRYFSKDAVQIITKMAAANGVRRVWVGQDSLLSTPAVSAIIRERIAADGSKATGAFILTASHNPGGPTEDFGIKYNMGNGGPAPESVTDKIFSNTTTITEYLIAEDLPDVDISALGVTTFTGPEGPFDVDVFDSATDYIKLMKTIFDFESIKKLLASPKFSFCFDGLHGVAGAYAKRMFVDELGASESSLLNCVPKEDFGGGHPDPNLTYAKELVERMGLGKSSSNVEPPEFGAAADGDADRNMVLGKRFFVTPSDSVAIIAANAVQSIPYFASGLKGVARSMPTSAALDVVAKNLNLKFFEVPTGWKFFGNLMDAGMCSVCGEESFGTGSDHIREKDGIWAVLAWLSIIAYKNKDNLGGDKLVSVEDIVLQHWATYGRHYYTRYDYENVDAEAAKELMANLVKMQSALSDVNKLIKEIQPDVAEVVSADEFEYKDPVDGSVSKHQGIRYLFGDGSRLVFRLSGTGSVGATIRIYIEQYEKDSSKTGRESSDALSPLVDVALKLSKIKEYTGRSAPTVIT
modifications: Phleum Pratense

tested on: cultured PBMCs of the allergic donors; test: ELISPOT of IL-5 or IFNg production by cultured PBMCs of TG allergic donors in response to peptide; type: cell-based, human; conditions: NTGA number given = criterion met; TG allergic donors n=20
Excerpt: Table 1 indicates for each of the 397 PG+ peptides in which non-grass pollen species a matching peptide with either less than 3, less than 2 or zero mismatches are found. The number of TG grass allergic donors (n=20) with an in vitro T cell response to the TG peptide sequence is also shown.
A set of 93 proteins from Timothy grass (TG) pollen and the assembly of 822 peptides (15 mers) predicted to promiscuously bind HLA class II molecules shown in Table 9 and the immune reactivity in allergic donors have been reported in PCT application WO 2013/119863. […] Immune reactivity was determined by the production of IL-5 or IFNg from cultured PBMCs of the allergic donors in response to stimulation with a peptide and IL-5 and IFNg were measured by ELISPOT as described in Oseroff C et al, 2010.
In short, T cell immune reactivity was determined using PBMCs isolated from study participants and stored in liquid nitrogen until further use. For experimental testing, PBMCs were thawed and expanded in vitro with TG pollen extract (50 μg/mL) or the peptide pool ([…]). The TG extract and peptide pools had each been previously titrated to determine optimal stimulation concentrations.
Cytokine production by cultured PBMCs in response to antigen stimulation was measured by ELISPOT. Cells (1×10^5 cells/well) were plated and incubated with peptide (10 μg/mL), the peptide pool (5 μg/mL), or the TG extract (50 μg/mL). Phytohaemagglutinin (10 μg/mL) and medium alone were used as positive and negative controls, respectively. Samples were considered to produce a cytokine if 100 spot-forming cells (SFCs)/10^6 PBMCs were detected, with P .05 and a stimulation index of 2 or more. Criteria for individual peptides were the same except that a minimum of 20 SFCs were required for a sample to be counted as positive.
Table 3 lists the 397 PG+ peptides and indicates for each non-grass pollen species whether a matching peptide with either less than 3, less than 2 or zero mismatches could be detected. The immune reactivity of the TG peptide was assessed as the number of TG grass allergic donors (n=20) having in vitro T cell response against the TG peptide.

Molecule | NTGA's containing at least one T cell epitope, Th+ (Col 2)
B1 | 11
B2 | 9
B3 | 29
B4 | 4
B5 | 26
B6 | 30
B7 | 10

same assay, conditions: Table 6; PG+ peptides recognized by T cells of grass allergic donors (n=20)

Molecule | No of PG+ & th+ peptides per NTGA
B1 | 5
B2 | 3
B3 | 1
B4 | 4
B5 | 1
B6 | 1
B7 | 3

same assay, conditions: Table 6; PP peptides recognized by T cells of grass allergic donors (n=20)

Molecule | No of PP & Th+ peptides per NTGA
B1 | 1
B2 | 1
B3 | 1
B4 | 3
B5 | 1
B6 | 1
B7 | 0

same assay, conditions: Table 7; peptides per NTGA recognized by T cells of grass allergic donors (n=20)

Molecule | # Th+
B1 | 0
B2 | 0
B3 | 0
B4 | 0
B5 | 0
B6 | 0
B7 | 0
